Values of other authors as cited in US20230076733A1, “Combination Therapy” (AGENCY FOR SCIENCE, TECHNOLOGY AND RESEARCH, priority 2020, published 2023).

Settings: phase 3 trials, cited from earlier work

B1: Figitumumab (antibody, chains of the INN, looked up)
heavy: EVQLLESGGGLVQPGGSLRLSCTASGFTFSSYAMNWVRQAPGKGLEWVSAISGSGGTTFYADSVKGRFTISRDNSRTTLYLQMNSLRAEDTAVYYCAKDLGWSDSYYYYYGMDVWGQGTTVTVSSASTKGPSVFPLAPCSRSTSESTAALGCLVKDYFPEPVTVSWNSGALTSGVHTFPAVLQSSGLYSLSSVVTVPSSNFGTQTYTCNVDHKPSNTKVDKTVERKCCVECPPCPAPPVAGPSVFLFPPKPKDTLMISRTPEVTCVVVDVSHEDPEVQFNWYVDGVEVHNAKTKPREEQFNSTFRVVSVLTVVHQDWLNGKEYKCKVSNKGLPAPIEKTISKTKGQPREPQVYTLPPSREEMTKNQVSLTCLVKGFYPSDIAVEWESNGQPENNYKTTPPMLDSDGSFFLYSKLTVDKSRWQQGNVFSCSVMHEALHNHYTQKSLSLSPG
light: DIQMTQFPSSLSASVGDRVTITCRASQGIRNDLGWYQQKPGKAPKRLIYAASRLHRGVPSRFSGSGSGTEFTLTISSLQPEDFATYYCLQHNSYPCSFGQGTKLEIKRTVAAPSVFIFPPSDEQLKSGTASVVCLLNNFYPREAKVQWKVDNALQSGNSQESVTEQDSKDSTYSLSSTLTLSKADYEKHKVYACEVTHQGLSSPVTKSFNRGEC
- serious adverse events and deaths (lung cancer, Figitumumab in combination with one chemotherapy regimen versus carboplatin or paclitaxel chemotherapy alone): 21%
- survival (Figitumumab combined with established chemotherapy regimens (carboplatin and paclitaxel)): failed to improve survival
